Measured values as given in US20200071378A1 (SHATTUCK LABS, published 2020).
Values belong to the binder of their own block, whether it stands above or below them.

Experiments:
hOX40-His [1] = target: T1, hOX40-His (human, UniProt P43489 29-216, limits assumed); assay: SPR/Octet kinetics on hOX40-His, against the control Fc-OX40L
T1 construct: also called human OX40
T1 sequence (looked up): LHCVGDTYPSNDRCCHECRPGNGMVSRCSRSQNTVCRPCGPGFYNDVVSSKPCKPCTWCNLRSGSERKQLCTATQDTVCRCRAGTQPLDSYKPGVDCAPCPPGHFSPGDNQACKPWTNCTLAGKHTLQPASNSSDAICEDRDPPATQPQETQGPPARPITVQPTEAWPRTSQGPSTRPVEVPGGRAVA

human IgG (plate-bound) = target: T2, human IgG (plate-bound); assay: ELISA, left panel; sheet header 'IgG ELISA, H&L Capture, Fc-HRP Detect'; paragraph 219: capture on plate-bound human IgG, detection with HRP-conjugated anti-human IgG antibody
T2 construct: Capture reagent as printed; It may in fact be an anti-human IgG antibody; also called hIgG
Description: Specifically, the Fc portion of the chimeric protein was detected by capturing to a plate-bound human IgG and detecting via an HRP-conjugated anti-human IgG antibody (left panel of FIG. 3). The OX40 domain of the chimeric protein was detected by capturing to a plate-bound recombinant human OX40 protein and detecting via an anti-OX40-specific antibody (right panel of FIG. 3). It was observed that in ELISA assays, using the central Fc region to detect chimeric proteins tended to underestimate the actual protein content in a sample. Therefore, low level of the hVSIG8-Fc-OX40L chimeric protein was detected compared to standard in this assay.

hOX40-His [2] = target: T1, hOX40-His; assay: SPR (BioRad ProteOn XPR 360) per Example 5; FIG. 5 legend says biolayer interferometry (Octet); hOX40-His as ligand, analyte at 117.6 nM
[3] = target: T3, human OX40 expressed on cells (Jurkat/hOX40) (human, UniProt P43489 29-277); assay: flow cytometry on Jurkat/hOX40 cells
T3 construct: whole, on cells; also called Jurkat cells engineered to overexpress human OX40; OX40 present on the cell surface
T3 sequence (looked up): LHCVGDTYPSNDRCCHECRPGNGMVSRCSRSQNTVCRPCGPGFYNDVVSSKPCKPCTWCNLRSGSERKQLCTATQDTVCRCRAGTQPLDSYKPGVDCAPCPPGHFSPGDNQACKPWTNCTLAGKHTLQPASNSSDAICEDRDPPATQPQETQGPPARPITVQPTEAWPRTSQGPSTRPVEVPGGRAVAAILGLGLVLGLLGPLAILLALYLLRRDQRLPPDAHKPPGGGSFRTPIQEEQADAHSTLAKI
Procedure: For cell binding assays, immortalized cell lines were engineered to stably express human OX40 (Jurkat/hOX40). Increasing concentrations of the VSIG8-Fc-OX40L chimeric protein were incubated with the over-expressing (Jurkat/hOX40) cell line for two hours. Cells were collected, washed, and stained with antibodies for the detection of chimeric protein binding by flow cytometry.

hOX40-His [4] = target: T1, hOX40-His; assay: SPR (BioRad ProteOn XPR 360) per Example 5; FIG. 5 legend says biolayer interferometry (Octet); hOX40-His as ligand, analyte at 222.2 nM
[5] = target: T4, recombinant murine OX40-His (murine, UniProt P47741 20-211, limits assumed); assay: biolayer interferometry, 'Octet Binding Affinities, Ligand: mouse OX40-His'; penta-His biosensors; Example 11 calls it SPR
T4 construct: Coated on penta-his biosensors; also called mOX40
T4 sequence (looked up): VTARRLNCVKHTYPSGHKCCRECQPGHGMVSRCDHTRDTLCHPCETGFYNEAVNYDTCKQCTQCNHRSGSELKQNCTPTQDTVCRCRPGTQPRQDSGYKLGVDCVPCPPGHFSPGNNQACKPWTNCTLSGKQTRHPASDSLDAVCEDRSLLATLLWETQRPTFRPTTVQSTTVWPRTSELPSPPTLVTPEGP

fold slower off-rate than the Fc-OX40L protein (hOX40-His [1]): 10 fold
EC50 (read off the curve) (human IgG (plate-bound)): ~6 nM
Kd (hOX40-His [2]): 0.767 nM
koff (hOX40-His [2]): 0.000254 s⁻¹
kon (hOX40-His [2]): 331000 M⁻¹ s⁻¹
EC50 [3]: ~30 nM
B1: human VSIG8-Fc-OX40L chimeric protein (Fc fusion)
chain: VRINGDGQEVLYLAEGDNVRLGCPYVLDPEDYGPNGLDIEWMQVNSDPAHHRENVFLSYQDKRINHGSLPHLQQRVRFAASDPSQYDASINLMNLQVSDTATYECRVKKTTMATRKVIVTVQARPAVPMCWTEGHMTYGNDVVLKCYASGGSQPLSYKWAKISGHHYPYRAGSYTSQHSYHSELSYQESFHSSINQGLNNGDLVLKDISRADDGLYQCTVANNVGYSVCVVEVKVSDSRRIGCPPCPAPEFLGGPSVFLFPPKPKDQLMISRTPEVTCVVVDVSQEDPEVQFNWYVDGVEVHNAKTKPREEQFNSTYRVVSVLTVLHQDWLSGKEYKCKVSSKGLPSSIEKTISNATGQPREPQVYTLPPSQEEMTKNQVSLTCLVKGFYPSDIAVEWESNGQPENNYKTTPPVLDSDGSFFLYSRLTVDKSRWQEGNVFSCSVLHEALHNHYTQKSLSLSLGKIEGRMDQVSHRYPRIQSIKVQFTEYKKEKGFILTSQKEDEIMKVQNNSVIINCDGFYLISLKGYFSQEVNISLHYQKDEEPLFQLKKVRSVNSLMVASLTYKDKVYLNVTTDNTSLDDFHVNGGELILIHQNPGEFCVL
notes: also called hVSIG8-Fc-OX40L

Kd (hOX40-His [4]): 61 nM
koff (hOX40-His [4]): 0.00254 s⁻¹
kon (hOX40-His [4]): 41700 M⁻¹ s⁻¹
B2: commercially-available single-sided human Fc-OX40L (Fc fusion, UniProt P23510 51-183, looked up)
chain: QVSHRYPRIQSIKVQFTEYKKEKGFILTSQKEDEIMKVQNNSVIINCDGFYLISLKGYFSQEVNISLHYQKDEEPLFQLKKVRSVNSLMVASLTYKDKVYLNVTTDNTSLDDFHVNGGELILIHQNPGEFCVL
notes: Bought control; also called hFc-OX40L; recombinant control protein; not shown: Fc part of a bought control protein, not described

binding result [5]: binds
B3: commercially-available mFc-OX40L (Fc fusion, murine, UniProt P43488 51-198, looked up)
chain: SSSPAKDPPIQRLRGAVTRCEDGQLFISSYKNEYQTMEVQNNSVVIKCDGLYIIYLKGSFFQEVKIDLHFREDHNPISIPMLNDGRRIVFTVVASLAFKDKVYLTVNAPDTLCEHLQINDGELIVVQLTPGYCAPEGSYHSTVNQVPL
notes: Bought control; Construct is not described; also called commercially-available recombinant control protein; not shown: Fc part of a bought control protein, not described
